# Biological target: His6-MBP-PadeB1
# Assay: fluorescence polarisation
row,Substance,Ki [nM]
1,"PadeA precursor peptide, wild type (WT)",137
2,PadeA variant P–12A (peptide),476
3,PadeA variant P–12A/Y–15A (peptide),1340

# Continued, values first:
row,Ki [nM],Substance
1,1180,PadeA variant Y–15A (peptide)
2,152,PadeA variant T–2A (peptide)
3,127,PadeA variant A1G (peptide)
4,120,PadeA(−19 to −7) peptide

# Biological target: His6-MBP-PadeB1
# Assay: fluorescence polarisation
# Remark: another data set of the same source
Kd [nM],Ki [nM],Substance
69,,Fl-PadeA (PadeA labelled with fluorescein-5-maleimide) (peptide)
,119,PadeA(−19 to −7) peptide

# Source: PMC6092944
